Results on one molecule are retold here after patent publication US11833215B2, “CKIT antibody drug conjugates” (Novartis AG, priority 2014, dated 2023).

Entries after “also recorded” stand apart in the source; their conditions may differ.

Format in all cases: cell-based
Series [1] deals with cKIT on normal human CD34+ bone marrow cells. Description: cKIT receptor internalization on bone marrow cells by flow cytometry. The note with it: 10 μg/ml, 37° C. How it is done: In another internalization experiment, the impact of NEG085 on cKIT receptor levels was evaluated on human bone marrow cells. Normal human CD34+ bone marrow cells (All Cells, Cat #ABM022F, Emeryville, CA) were thawed and washed with 10 mL of StemPro®-34 SFM medium (Gibco, Life Technologies, Carlsbad, CA). Cells were resuspended in 1.25 mL of StemPro-34 SFM medium at 4×10^5 cells/mL and split equally into two tubes. One tube was untreated, and the other was treated with 10 μg/ml of NEG085 and both were incubated at 37° C., 5% CO2. 100 μL of cell suspension was collected at each timepoint (0, 15, 30, 60, 120, and 240 min) from each condition, and placed into an ice cold collection tube to cease internalization. Cells were washed with 3 mL of ice-cold FBS stain buffer and resuspended in 100 μL of FBS stain buffer. […] of 104D2-BV421 (mouse anti-human IgG1 k, Biolegend, San Diego CA) was added to each tube and incubated on ice for 1 hour. Following another wash with FBS stain buffer, total cKIT receptors were measured by flow cytometry by assessing the mean fluorescence intensity of BV421 on a FACS Canto II® (BD Biosciences, San Jose, CA).
Background: Flow cytometry measures light scatter and fluorescence of single cells or particles in a stream.

Another series relates to Uke-1 cells. Description: ADCC activity in vitro (Calcein release, NK3.3 effector cells). As to conditions: unconjugated IgG1, effector to target ratio 20 to 1. How it is done:
The ability of the unconjugated anti-cKIT antibodies (NEG085, 20376) to mediate antibody dependent cellular cytotoxicity was determined versus Uke-1 cells (target cells; generously provided by Professor Walter Fiedler, University Hospital Eppendorf, Hamburg, Germany) in co-incubation with NK3.3 cells (killer cells or effector cells; kindly provided by Jacky Kornbluth from Saint Louis University). […] In order to calculate the antibody specific lysis of the target cells, a parallel incubation of target cells only without antibody or effector cells served as a baseline and negative control, whereas the positive control or maximal lysis or hundred percent specific lysis was determined by lysis of target cells only with a 1% Triton-X 100 solution. […] Following a co-incubation of target and effector cells, the microtiterplate was centrifuged and an aliquot of the supernatant fluid was transferred to another microtiterplate (96 well, flat-bottomed, black with clear bottom; (Corning Costar, catalog #3904, Tewksbury, MA) and the concentration of free Calcein in solution was determined with a fluorescence counter (Victor 3 ® multilabel counter, Perkin Elmer, Waltham, MA).

A further series has as its system primary human mast cells. As to the kind of experiment: mast cell degranulation (β-hexosaminidase release). The note with it: 0.05-100 nM, 90 min. How it is done: Primary human mast cells were cultured from peripheral human blood according to the methods described by Saito et al., (supra). Mast cells, which had been in liquid culture for a minimum of one week, were pre-treated with 5% Ag-specific IgE JW8 (in-house batch ACE 27283), 95% non-specific monoclonal human IgE (Abbiotec, Cat #12030635, San Diego, CA) and 10 ng/mL rhIL-4 (R&D Systems Cat #204-IL, Minneapolis, MN) for 5 days at 37° C. The cells were then incubated with increasing concentrations (0.05-100 nM) of an isotype control IgG, the anti-human cKIT Abs, 20376 and NEG085, the anti-IgE Ab, LE27, or the NIP(5)BSA antigen, in the presence of a goat anti-human IgG (H+L) Fc-specific Ab (Jackson ImmunoResearch, Cat #109-005-008-JIR, West Grove, PA) for 90 min at 37° C. Cells were then centrifuged and the supernatants were transferred into 96-well black-walled plates prior to the addition of the β-hexosaminidase substrate. Following 90 min incubation at 37° C., the reaction was stopped by the addition of tris-base (Sigma, Cat #T1503-500G, pH 12, St. Louis, MO) and the fluorescence intensity was recorded on the Envision® plate reader.

B1: NEG085: anti-cKIT antibody of Table 3, VH SEQ ID NO 82, VL SEQ ID NO 91 (antibody, listed as Homo sapiens, V domains shown)
VH: EVQLVESGGGLVQPGGSLRLSCAASGFAFSGYYMAWVRQAPGKGLEWVANINYPGSSTYYLDSVKGRFTISRDNAKNSLYLQMNSLRAEDTAVYYCARGDYYGTTYWYFDVWGQGTTVTVSS
VL: DIQMTQSPSSLSASVGDRVTITCRASQSISSYLNWYQQKPGKAPKLLIYYTSRLQSGVPSRFSGSGSGTDFTLTISSLQPEDFATYYCQQGRRLWSFGGGTKVEIK
For B1, the “time of bulk of cKIT internalization” value in series [1] stood at 15 min. The “internalization of cKIT on human bone marrow cells” value in series [1] (0-240 min) is on record as “mediate rapid internalization; also recorded: rapidly internalized”. Also, the “ADCC killing of target cells” value with Uke-1 cells was “do not induce ADCC; also recorded: not able to induce ADCC”. In addition, in the series on primary human mast cells, the “degranulation of primary human mast cells” value is “do not mediate primary human mast cell degranulation; also recorded: do not induce mast cell degranulation”.
